Assay results published in patent US20090311693A1.

Target: SK2 or SK3 channels (apamin-sensitive channels of MDA-MB-435s cells)
Assay: cell-based or functional assay

apamin (from UniProt P01500 28-45) (peptide)
block of whole-cell outward K+ currents in MDA-MB-435s cells (patch-clamp), IC50: < 0.1 nM
